Data reported in patent publication US20240132578A1.

Experiments:
Test in all cases: cell-based or functional assay
[1] = molecular target: HIV-1 JR-CSF Env I423A (I4234 in the source) (HIV-1 (isolate JR-CSF)) (UniProt P20871)
[2] = molecular target: HIV-1 92UG005 envelope protein (Env) on pseudovirus (HIV-1)
[3] = molecular target: HIV-1 Env of isolate MGRM-F1-021 (pseudovirus) (HIV-1)
[4] = molecular target: HIV-1 envelope glycoprotein (Env) of isolate MGRM-AE-003, subtype AE (HIV-1)
[5] = molecular target: HIV-1 envelope glycoprotein (Env) of isolate THRO.18, on pseudovirus (HIV-1)
[6] = molecular target: HIV-1 envelope glycoprotein (Env) of isolate MGRM-Chronic-B-012, on pseudovirus (HIV-1)
[7] = molecular target: HIV-1 envelope glycoprotein (Env) of isolate MGRM-Chronic-B-018, on pseudovirus (HIV-1)
[8] = molecular target: HIV-1 JR-CSF Env I307A (HIV-1 (isolate JR-CSF, clade B)) (UniProt P20871)
[9] = molecular target: HIV-1 envelope glycoprotein (Env) of isolate TRO.11, on pseudovirus (HIV-1)
[10] = molecular target: HIV-1 Env of isolate MGRM-F1-018 (pseudovirus) (HIV-1)
[11] = molecular target: HIV-1 envelope glycoprotein (Env) of isolate VLGCA1, subtype A (HIV-1)
[12] = molecular target: HIV-1 MGRM-C-026 Env (HIV-1)
[13] = molecular target: HIV-1 Env of pseudovirus MGRM-D-014 (HIV-1)
[14] = molecular target: HIV-1 Env of pseudovirus MGRM-F1-012 (HIV-1)
[15] = molecular target: HIV-1 envelope glycoprotein (Env) of isolate MGRM-AE-007 (HIV-1)
[16] = molecular target: HIV-1 envelope glycoprotein (Env) of isolate MG RM-AG-008 (HIV-1)
[17] = molecular target: HIV-1 Env of isolate MGRM-Chronic-B-003 (HIV-1)
[18] = molecular target: HIV-1 Env of isolate MGRM-AG-001 (subtype AG) (HIV-1)
[19] = molecular target: HIV-1 Env of isolate 92UG114 (pseudovirus) (HIV-1)
[20] = molecular target: HIV-1 Env of isolate 92UG024 (pseudovirus) (HIV-1)
[21] = molecular target: HIV-1 Env of pseudovirus isolate MGRM-C-006 (clade C) (HIV-1)
[22] = molecular target: HIV-1 Env of isolate 98CN009 (pseudovirus) (HIV-1)
[23] = molecular target: HIV-1 Env of isolate MGRM-A-011 (subtype A) (HIV-1)
[24] = molecular target: HIV-1 JR-CSF Env T303A (HIV-1 (isolate JR-CSF, clade B)) (UniProt P20871)
[25] = molecular target: HIV-1 Env of isolate MGRM-D-018 (pseudovirus) (HIV-1)
[26] = molecular target: HIV-1 Env of isolate MGRM-A-008 (subtype A) (HIV-1)
[27] = molecular target: HIV-1 Env of isolate MGRM-F1-017 (HIV-1)
[28] = molecular target: HIV-1 Env of isolate CAAN.A2 (HIV-1)
[29] = molecular target: HIV-1 Env of pseudovirus isolate CAAN.A2 (clade B) (HIV-1)
[30] = molecular target: HIV-1 Env of isolate MGRM-AE-002 (pseudovirus) (HIV-1)
[31] = molecular target: HIV-1 Env of isolate MG RM-A-012 (pseudovirus) (HIV-1)
[32] = molecular target: HIV-1 Env of isolate MGRM-G-028 (subtype G) (HIV-1)
[33] = molecular target: HIV-1 Env of pseudovirus isolate 6535.3 (clade B) (HIV-1)
[34] = molecular target: HIV-1 Env of isolate MGRM-G-001 (subtype G) (HIV-1)
[35] = molecular target: HIV-1 Env of isolate MGRM-G-004 (subtype G) (HIV-1)

4858_P08 (PGT-123) (antibody)
Fold IC50 increase relative to wild-type (pseudovirus neutralization) [1]: 1.5 fold | IC50 (ug/mL), pseudovirus neutralization [2]: 2.49 µg/mL | IC50 (µg/mL), pseudovirus neutralization [3]: 0.307 µg/mL | IC50, pseudovirus neutralization [4]: > 50 µg/mL | IC50, pseudovirus neutralization [5]: > 50 µg/mL | IC50, pseudovirus neutralization [6]: 0.227 µg/mL | IC50, pseudovirus neutralization [7]: > 50 µg/mL | Fold IC50 increase relative to wild-type [8]: 5.9 fold | IC50, pseudovirus neutralization [9]: 0.008 µg/mL | IC50 (µg/mL), pseudovirus neutralization [10]: 0.054 µg/mL | IC50, pseudovirus neutralization [11]: > 50 µg/mL | IC50, pseudovirus neutralization [12]: 0.0031 µg/mL

PGT-143 (4980_N08) (antibody)
IC50, pseudovirus neutralization [13]: 0.009 µg/mL | IC50, pseudovirus neutralization [14]: > 50 µg/mL | IC50 [15]: 13.6 µg/mL | IC50 [16]: 34 µg/mL

PGT-142 (4995_E20) (antibody)
IC50, pseudovirus neutralization [13]: 0.005 µg/mL | IC50, pseudovirus neutralization [14]: > 50 µg/mL | IC50 [15]: 6.7 µg/mL | IC50 [16]: 12.1 µg/mL

5114_A19 (PGT-128) (antibody)
IC50 (µg/mL), pseudovirus neutralization [17]: 0.007 µg/mL | IC50, pseudovirus neutralization [18]: 4.73 µg/mL | Fold IC50 increase relative to wild-type (pseudovirus neutralization) [1]: 2.6 fold | IC50 (µg/mL), pseudovirus neutralization [19]: 0.083 µg/mL | IC50 (µg/mL), pseudovirus neutralization [20]: > 50 µg/mL | IC50, pseudovirus neutralization [21]: 0.014 µg/mL | IC50 (µg/mL), pseudovirus neutralization [22]: 0.025 µg/mL | IC50, pseudovirus neutralization [23]: > 50 µg/mL | Fold IC50 increase relative to wild-type [8]: 3.7 fold | Fold IC50 increase relative to wild-type [24]: > 500 fold | IC50 (µg/mL), pseudovirus neutralization [25]: 0.008 µg/mL | IC50, pseudovirus neutralization [26]: > 50 µg/mL | IC50 (µg/mL), pseudovirus neutralization [27]: 11.7 µg/mL | IC50 (µg/mL), pseudovirus neutralization [28]: 1.48 µg/mL

PGT-144 (4970_K22) (antibody)
IC50, pseudovirus neutralization [13]: 0.113 µg/mL | IC50, pseudovirus neutralization [14]: > 50 µg/mL | IC50 [15]: > 50 µg/mL | IC50 [16]: > 50 µg/mL

PGT-141 (4964_G22; 4993_K13) (antibody)
IC50, pseudovirus neutralization [13]: 0.01 µg/mL | IC50, pseudovirus neutralization [14]: > 50 µg/mL | IC50 [15]: 33.1 µg/mL | IC50 [16]: 19.2 µg/mL

VRC01 (antibody)
IC50, pseudovirus neutralization [29]: 0.722 µg/mL | IC50, pseudovirus neutralization [13]: 0.332 µg/mL | IC50 (µg/mL), single-round pseudovirus neutralization [30]: 0.217 µg/mL | IC50, pseudovirus neutralization [14]: 0.488 µg/mL | IC50 (µg/mL), single-round pseudovirus neutralization [31]: > 50 µg/mL | IC50 (µg/mL), pseudovirus neutralization [32]: 0.164 µg/mL | IC50, pseudovirus neutralization [33]: 1.75 µg/mL | IC50 (µg/mL), pseudovirus neutralization [34]: 0.0371 µg/mL | IC50 (µg/mL), pseudovirus neutralization [35]: > 50 µg/mL | IC50 [15]: 0.835 µg/mL | IC50 [16]: 0.124 µg/mL

5141_B17 (PGT-126) (antibody)
Fold IC50 increase relative to wild-type (pseudovirus neutralization) [1]: 1.1 fold | IC50 (ug/mL), pseudovirus neutralization [2]: 0.0181 µg/mL | IC50 (µg/mL), pseudovirus neutralization [3]: > 50 µg/mL | IC50, pseudovirus neutralization [4]: > 50 µg/mL | IC50, pseudovirus neutralization [5]: > 50 µg/mL | IC50, pseudovirus neutralization [6]: 0.027 µg/mL | IC50, pseudovirus neutralization [7]: 0.052 µg/mL | IC50, pseudovirus neutralization [9]: 0.041 µg/mL | Fold IC50 increase relative to wild-type [24]: > 250 fold | IC50 (µg/mL), pseudovirus neutralization [10]: 14.9 µg/mL | IC50, pseudovirus neutralization [11]: > 50 µg/mL | IC50, pseudovirus neutralization [12]: 0.0076 µg/mL

5343_B08 (PGT-135) (antibody)
IC50 (µg/mL), pseudovirus neutralization [17]: > 50 µg/mL | IC50, pseudovirus neutralization [18]: > 50 µg/mL | Fold IC50 increase relative to wild-type (pseudovirus neutralization) [1]: 0.1 fold | IC50 (ug/mL), pseudovirus neutralization [2]: > 10 µg/mL | IC50 (µg/mL), pseudovirus neutralization [19]: 1.29 µg/mL | IC50 (µg/mL), pseudovirus neutralization [20]: 0.01 µg/mL | IC50, pseudovirus neutralization [21]: > 50 µg/mL | IC50 (µg/mL), pseudovirus neutralization [22]: 0.071 µg/mL | IC50, pseudovirus neutralization [23]: > 50 µg/mL | IC50 (µg/mL), pseudovirus neutralization [25]: 0.039 µg/mL | IC50, pseudovirus neutralization [26]: > 50 µg/mL | IC50 (µg/mL), pseudovirus neutralization [27]: 7.79 µg/mL | IC50 (µg/mL), pseudovirus neutralization [28]: 5.15 µg/mL

5145_B14 (PGT-127) (antibody)
Fold IC50 increase relative to wild-type (pseudovirus neutralization) [1]: 0.5 fold | IC50 (µg/mL), pseudovirus neutralization [3]: > 50 µg/mL | IC50, pseudovirus neutralization [4]: > 50 µg/mL | IC50, pseudovirus neutralization [5]: > 50 µg/mL | IC50, pseudovirus neutralization [6]: 0.075 µg/mL | IC50, pseudovirus neutralization [7]: 1.9 µg/mL | Fold IC50 increase relative to wild-type [8]: 10.2 fold | IC50, pseudovirus neutralization [9]: 0.079 µg/mL | Fold IC50 increase relative to wild-type [24]: > 500 fold | IC50 (µg/mL), pseudovirus neutralization [10]: 3.59 µg/mL | IC50, pseudovirus neutralization [11]: > 50 µg/mL

5147_N06 (PGT-130) (antibody)
IC50 (µg/mL), pseudovirus neutralization [17]: > 50 µg/mL | IC50, pseudovirus neutralization [18]: > 50 µg/mL | Fold IC50 increase relative to wild-type (pseudovirus neutralization) [1]: > 1000 fold | IC50 (ug/mL), pseudovirus neutralization [2]: 0.474 µg/mL | IC50 (µg/mL), pseudovirus neutralization [19]: > 50 µg/mL | IC50 (µg/mL), pseudovirus neutralization [20]: > 50 µg/mL | IC50, pseudovirus neutralization [21]: 0.095 µg/mL | IC50 (µg/mL), pseudovirus neutralization [22]: 0.136 µg/mL | IC50, pseudovirus neutralization [23]: > 50 µg/mL | Fold IC50 increase relative to wild-type [8]: 1000 fold | Fold IC50 increase relative to wild-type [24]: > 250 fold | IC50 (µg/mL), pseudovirus neutralization [25]: 0.049 µg/mL | IC50, pseudovirus neutralization [26]: > 50 µg/mL | IC50 (µg/mL), pseudovirus neutralization [27]: > 50 µg/mL | IC50 (µg/mL), pseudovirus neutralization [28]: > 50 µg/mL | IC50, pseudovirus neutralization [12]: 0.0173 µg/mL

5136_H01 (PGT-131) (antibody)
IC50 (µg/mL), pseudovirus neutralization [17]: > 50 µg/mL | IC50, pseudovirus neutralization [18]: > 50 µg/mL | Fold IC50 increase relative to wild-type (pseudovirus neutralization) [1]: > 80 fold | IC50 (µg/mL), pseudovirus neutralization [19]: > 50 µg/mL | IC50 (µg/mL), pseudovirus neutralization [20]: > 50 µg/mL | IC50, pseudovirus neutralization [21]: 0.611 µg/mL | IC50 (µg/mL), pseudovirus neutralization [22]: 4.05 µg/mL | IC50, pseudovirus neutralization [23]: > 50 µg/mL | Fold IC50 increase relative to wild-type [8]: > 170 fold | Fold IC50 increase relative to wild-type [24]: > 170 fold | IC50 (µg/mL), pseudovirus neutralization [25]: 0.148 µg/mL | IC50, pseudovirus neutralization [26]: > 50 µg/mL | IC50 (µg/mL), pseudovirus neutralization [27]: > 50 µg/mL | IC50 (µg/mL), pseudovirus neutralization [28]: > 50 µg/mL

5123_A06 (PGT-125) (antibody)
Fold IC50 increase relative to wild-type (pseudovirus neutralization) [1]: 5 fold | IC50 (ug/mL), pseudovirus neutralization [2]: > 10 µg/mL | IC50 (µg/mL), pseudovirus neutralization [3]: > 50 µg/mL | IC50, pseudovirus neutralization [4]: 0.092 µg/mL | IC50, pseudovirus neutralization [5]: > 50 µg/mL | IC50, pseudovirus neutralization [6]: 0.036 µg/mL | IC50, pseudovirus neutralization [7]: > 50 µg/mL | Fold IC50 increase relative to wild-type [8]: 5 fold | IC50, pseudovirus neutralization [9]: 0.111 µg/mL | Fold IC50 increase relative to wild-type [24]: > 250 fold | IC50 (µg/mL), pseudovirus neutralization [10]: > 50 µg/mL | IC50, pseudovirus neutralization [11]: 0.078 µg/mL | IC50, pseudovirus neutralization [12]: 0.0106 µg/mL

PGT-145 (4995_P16) (antibody)
IC50, pseudovirus neutralization [13]: 2.51 µg/mL | IC50, pseudovirus neutralization [14]: 0.113 µg/mL | IC50 [15]: 0.181 µg/mL | IC50 [16]: 0.244 µg/mL
